# Results: US20120165265A1, “Calcium Signaling Modulators Involving STIM and ORAI Proteins” (priority 2009, published 2012)
# Assays:
# Orai1 [1] = biological target: T1, Orai1 (Homo sapiens, UniProt Q96D31); assay: Co-immunoprecipitation with Orai1 in HEK 293T cells; type: binding; parameters: expressed in transfected cells; host or cells: HEK 293; conditions: 150 mM salt, 1% Triton X-100
# Experimental: Immunoprecipitation and Immunoblot Analysis. Transfected HEK 293T cells (12-24 h) were washed with PBS and lysed in 50 mM Tris-HCl pH 7.5, 150 mM NaCl, 1% Triton X-100, and protease inhibitors. Lysates were spun at 12,000 rpm for 10 min, and the supernatant was incubated with anti-Flag M2 agarose beads (Sigma), or anti-myc or -HA antibody followed by IgG agarose beads (Pierce). Lysates and immunoprecipitates were subjected to SDS-PAGE, probed with HRP-conjugated secondary antibody and detected by enhanced chemiluminescence (Pierce).
# CAD Associates with Orai1 in vivo and in vitro. Because cytosolic CAD is a potent activator of Orai1 channels and is not associated with the ER, we hypothesized that CAD binds to Orai1. To test this idea, we first expressed YFP-CAD with or without myc-Orai1 in HEK 293 cells and examined its intracellular localization. […] To provide additional evidence that CAD and Orai1 are part of the same protein complex we expressed Flag-tagged CAD and GFP-tagged Orai1 in HEK 293T cells and immunoprecipitated CAD with anti-Flag antibodies. GFP-myc-Orai1 was detected in the immunoprecipitates from cells co-expressing CAD and Orai1 but not from cells expressing CAD or Orai1 alone (FIG. 3B).
# Thus, CAD and Orai1 form a protein complex in mammalian cells.
# [2] = biological target: T2, Orai1-ΔN, Orai1-ΔC, Orai1-ΔN73 (Homo sapiens, UniProt Q96D31); assay: Whole-cell recording of ICRAC with truncated Orai1 and CAD; type: cell-based; conditions: cells expressing Orai1-ΔN73
# T2 construct: expressed in transfected cells; host or cells: HEK 293
# Experimental: (§1) Electrophysiology. HEK 293 cells were transfected 8-24 h prior to electrophysiology experiments with STIM1- and Orai1-derived constructs in a 1:1 mass ratio using Lipofectamine 2000. […] ICRAC in cells cultured without LaCl3 was similar to that in cells cultured with LaCl3, but most cells without LaCl3 died soon after break-in.
# (§2) Currents were recorded using standard whole-cell patch clamp techniques (Prakriya and Lewis, 2001). Pipettes of resistance 2-5 MΩ were filled with an internal solution containing (in mM) 150 Cs aspartate, 8 MgCl2, 10 EGTA, and 10 HEPES (pH 7.2 with CsOH). Currents were sampled at 5 kHz and filtered at 2 kHz, and all voltages were corrected for the junction potential of the pipette solution relative to Ringer's in the bath (−13 mV).
# Patch-clamp Experiments. Pipette-membrane seals were formed in 2 mM Ca^2+ Ringer's solution. After break-in to the whole-cell configuration, voltage stimuli consisting of a 100-ms step to −100 mV followed by a 100-ms ramp from −100 to +100 mV were delivered every 5 s from the holding potential of +30 mV. After the currents reached a steady level (˜300 s for wild-type STIM1), the external solution was changed via a multibarrel local perfusion pipette to a high-Ca^2+ Ringer's containing (in mM) 130 NaCl, 4.5 KCl, 20 CaCl2, 1 MgCl2, 10 D-glucose, and 5 HEPES (pH 7.4 with NaOH). […]
# CRAC channels = biological target: T3, CRAC channels (Homo sapiens, UniProt Q96D31); assay: [Ca2+]i imaging in HEK 293 cells expressing STIM1 fragment and Orai1; type: cell-based; conditions: HEK 293 cells coexpressing construct and Orai1, no store depletion
# T3 construct: expressed in transfected cells; host or cells: HEK 293
# Experimental: Ca^2+ Imaging. For FIG. 2, cells were loaded at 37° C. in DMEM with 1 μM fura-2/AM for 30 min. Ratiometric Ca2+ imaging was performed at 340 and 380 nm in 2 mM Ca2+ Ringer's solution with a Nikon Eclipse 2000-U inverted microscope equipped with a fluorescent arc lamp, excitation filter wheel, and a Hamamatsu Orca CCD camera. Images were collected using Openlab (Improvision) and analyzed using Igor Pro.
# To determine if CAD activates store operated Ca^2+ influx in cells, we measured [Ca^2+]i in HEK 293 cells expressing CAD and Orai1.
# Orai1 [3] = biological target: T1, Orai1; assay: Whole-cell patch clamp recording of ICRAC in transfected HEK 293 cells; type: cell-based; parameters: expressed in transfected cells; host or cells: HEK 293; conditions: compared with native ICRAC
# Experimental: as §1, §2
# Patch-clamp Experiments. Pipette-membrane seals were formed in 2 mM Ca^2+ Ringer's solution. After break-in to the whole-cell configuration, voltage stimuli consisting of a 100-ms step to −100 mV followed by a 100-ms ramp from −100 to +100 mV were delivered every 5 s from the holding potential of +30 mV. After the currents reached a steady level (˜300 s for wild-type STIM1), the external solution was changed via a multibarrel local perfusion pipette to a high-Ca^2+ Ringer's containing (in mM) 130 NaCl, 4.5 KCl, 20 CaCl2, 1 MgCl2, 10 D-glucose, and 5 HEPES (pH 7.4 with NaOH). All data were leak-corrected using the current elicited in 20 mM Ca^2+ Ringer's+10 μM LaCl3 at the end of the each experiment. LaCl3 and 2-APB were added directly to parent solutions on the day of the experiment from 10 mM and 100 mM stocks in H2O and DMSO, respectively.
# As a definitive test for CRAC channel activation, we conducted whole-cell patch clamp recordings from HEK 293 cells transiently transfected with myc-Orai1 and either YFP-STIM1 or YFP-CAD. In cells expressing full length YFP-STIM1, ICRAC appeared over several minutes following break-in, consistent with the typical slow activation seen in response to passive store depletion (FIG. 2D). […] In contrast, inward current was present from the moment of break-in in cells expressing YFP-CAD (FIG. 2E). This current was identified as ICRAC based on its dependence on extracellular Ca^2+, inward rectification, sequential enhancement and inhibition by 2-APB, and inhibition by La^3+ (FIG. 2E and FIG. 10 C, D). ICRAC was not observed at break-in in HEK 293 cells transfected with YFP or YFP-CAD in the absence of Orai1 (FIG. 2F), consistent with the low level of endogenous STIM1 and Orai1 in these cells. […] Inactivation was restored by addition of STIM1 residues carboxy-terminal to CAD.
# T1 sequence (Q96D31 whole entry): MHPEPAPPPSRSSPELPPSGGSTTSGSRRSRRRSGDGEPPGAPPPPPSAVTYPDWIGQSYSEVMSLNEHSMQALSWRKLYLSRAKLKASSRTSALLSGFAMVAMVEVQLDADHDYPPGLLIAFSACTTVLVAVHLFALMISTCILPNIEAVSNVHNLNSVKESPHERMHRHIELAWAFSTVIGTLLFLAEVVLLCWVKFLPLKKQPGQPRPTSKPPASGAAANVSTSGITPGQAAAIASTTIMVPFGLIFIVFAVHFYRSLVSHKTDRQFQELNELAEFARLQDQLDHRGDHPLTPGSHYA
# T3 sequence (Q96D31 whole entry, the tested form may be a part): as the sequence (Q96D31 whole entry) above
# T2 sequence (Q96D31 74-301): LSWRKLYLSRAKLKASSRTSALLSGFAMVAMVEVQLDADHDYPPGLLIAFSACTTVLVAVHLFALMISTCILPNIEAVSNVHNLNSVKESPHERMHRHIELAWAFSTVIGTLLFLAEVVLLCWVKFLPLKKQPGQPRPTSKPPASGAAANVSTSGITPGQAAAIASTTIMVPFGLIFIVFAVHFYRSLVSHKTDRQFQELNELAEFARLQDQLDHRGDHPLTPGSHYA
substance,measurement,setting,value
"CAD: 107-residue CRAC activation domain within the C-terminus of STIM1 (aa 342-448), SEQ ID NO:1",co-immunoprecipitation with Orai1,Orai1 [1],co-immunoprecipitates with Orai1
same,constitutive ICRAC activation,[2],constitutively activated ICRAC
same,[Ca2+]i / CRAC channel activation,CRAC channels,sustained [Ca^2+]i elevation
same,fast Ca2+-dependent inactivation of activated current,Orai1 [3],lacked fast Ca^2+-dependent inactivation
